Test results from PMC5037822, “Molecular and Biochemical Analysis of Two Rice Flavonoid 3’-Hydroxylase to Evaluate Their Roles in Flavonoid Biosynthesis in Rice Grain” (International Journal of Molecular Sciences, 2016).
Positions count from the first letter of the chain named. Numbers in names are those of the source.

How the values were obtained:
CYP75B4-JJJ = biological target: T1, CYP75B4-JJJ (Oryza sativa, UniProt Q8LM92, E7V); test: substrate feeding of induced yeast, HPLC of […]'-hydroxylated product; type: cell-based; conditions: 50 μM substrate, whole yeast WAT11 culture, 28 °C, 7.5 h
T1 construct: full length, 535 residues, natural allele with Val7, C-terminal V5 and 6xHis tags, yeast WAT11 cells with Arabidopsis reductase ATR1
T1 sequence (Q8LM92 1-535 E7V): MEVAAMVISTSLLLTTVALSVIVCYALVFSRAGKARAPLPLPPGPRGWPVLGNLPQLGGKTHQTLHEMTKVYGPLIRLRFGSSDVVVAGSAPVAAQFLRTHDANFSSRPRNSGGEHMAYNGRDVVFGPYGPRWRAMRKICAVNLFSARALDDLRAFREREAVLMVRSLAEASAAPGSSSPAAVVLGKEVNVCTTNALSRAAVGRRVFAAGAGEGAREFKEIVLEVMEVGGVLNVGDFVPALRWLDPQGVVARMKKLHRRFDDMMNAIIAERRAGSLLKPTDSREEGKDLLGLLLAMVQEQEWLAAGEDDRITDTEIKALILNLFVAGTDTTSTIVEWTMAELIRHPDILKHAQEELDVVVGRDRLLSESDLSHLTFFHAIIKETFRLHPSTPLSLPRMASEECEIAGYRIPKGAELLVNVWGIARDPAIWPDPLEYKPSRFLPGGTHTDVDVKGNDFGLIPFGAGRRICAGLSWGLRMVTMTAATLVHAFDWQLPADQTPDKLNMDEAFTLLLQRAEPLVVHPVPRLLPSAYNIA

CYP75B4-HN = biological target: T2, CYP75B4-HN (Oryza sativa, UniProt Q8LM92, H351Q); test: as above; type: cell-based; conditions: 50 μM substrate, whole yeast WAT11 culture, 28 °C, 7.5 h
T2 construct: full length, 535 residues, natural allele with Gln351, C-terminal V5 and 6xHis tags, yeast WAT11 cells with Arabidopsis reductase ATR1
T2 sequence (Q8LM92 1-535 H351Q): T1 sequence (Q8LM92 1-535 E7V) with V7E, H351Q

[1] = substrate: O=c1c(O)c(-c2ccc(O)cc2)oc2cc(O)cc(O)c12; test: cells, lysate or membranes; type: biochemical, Oryza sativa; conditions: 1 mM NADPH, 100 mM Tris pH 7.5, 30 °C
[2] = substrate: O=c1cc(-c2ccc(O)cc2)oc2cc(O)cc(O)c12; test: cells, lysate or membranes; conditions: 1 mM NADPH, 100 mM Tris pH 7.5, 30 °C
[3] = substrate: O=C1c2c(O)cc(O)cc2OC(c2ccc(O)cc2)C1O; test: cells, lysate or membranes; type: biochemical, Oryza sativa; conditions: 1 mM NADPH, 100 mM Tris pH 7.5, 30 °C, racemic substrate
[4] = substrate: O=C1CC(c2ccc(O)cc2)Oc2cc(O)cc(O)c21; test: cells, lysate or membranes; conditions: 1 mM NADPH, 100 mM Tris pH 7.5, 30 °C, racemic substrate

For `O=c1cc(-c2ccc(O)cc2)oc2cc(O)cc(O)c12` [API, apigenin], the “substrate feeding of induced yeast, HPLC of 3'-hydroxylated product” value (from here on “substrate feeding of induced yeast”) (CYP75B4-JJJ) was “CYP75B4-IM, CYP75B4-HN, and CYP75B4-JJJ metabolized naringenin, apigenin, and kaempferol” and the “substrate feeding of induced yeast” value (CYP75B4-HN) was “CYP75B4-IM, CYP75B4-HN, and CYP75B4-JJJ metabolized naringenin, apigenin, and kaempferol”.

`O=c1c(O)c(-c2ccc(O)cc2)oc2cc(O)cc(O)c12` [KAM, kaempferol] was tested, and the “substrate feeding of induced yeast” value (CYP75B4-JJJ) was “CYP75B4-IM, CYP75B4-HN, and CYP75B4-JJJ metabolized naringenin, apigenin, and kaempferol” and the “substrate feeding of induced yeast” value (CYP75B4-HN) was “CYP75B4-IM, CYP75B4-HN, and CYP75B4-JJJ metabolized naringenin, apigenin, and kaempferol”.

B1: CYP75B4-IM (Oryza sativa Japonica Group) (protein)
chain: T1 sequence (Q8LM92 1-535 E7V) with V7E
notes: full length, 535 residues, C-terminal V5 and 6xHis tags (pYES-DEST52), yeast WAT11 microsomes with Arabidopsis reductase ATR1
Work on B1 yielded a Km [1] of 2.948 ± 0.330 µM, a Vmax [1] of 0.007 µM/min/mg and a Km [2] of 0.240 ± 0.042 µM. For the same molecule, the Vmax [2] was 0.008 µM/min/mg.

B2: CYP75B3-IM (CYP75B3-JJJ) (Oryza sativa Japonica Group) (protein)
chain: MDVVPLPLLLGSLAVSAAVWYLVYFLRGGSGGDAARKRRPLPPGPRGWPVLGNLPQLGDKPHHTMCALARQYGPLFRLRFGCAEVVVAASAPVAAQFLRGHDANFSNRPPNSGAEHVAYNYQDLVFAPYGARWRALRKLCALHLFSAKALDDLRAVREGEVALMVRNLARQQAASVALGQEANVCATNTLARATIGHRVFAVDGGEGAREFKEMVVELMQLAGVFNVGDFVPALRWLDPQGVVAKMKRLHRRYDNMMNGFINERKAGAQPDGVAAGEHGNDLLSVLLARMQEEQKLDGDGEKITETDIKALLLNLFTAGTDTTSSTVEWALAELIRHPDVLKEAQHELDTVVGRGRLVSESDLPRLPYLTAVIKETFRLHPSTPLSLPREAAEECEVDGYRIPKGATLLVNVWAIARDPTQWPDPLQYQPSRFLPGRMHADVDVKGADFGLIPFGAGRRICAGLSWGLRMVTLMTATLVHGFDWTLANGATPDKLNMEEAYGLTLQRAVPLMVQPVPRLLPSAYGV
notes: full length, 526 residues, C-terminal V5 and 6xHis tags (pYES-DEST52), yeast WAT11 microsomes with Arabidopsis reductase ATR1
For B2, the Km [3] was 2.494 ± 0.350 µM, the Vmax [3] was 0.43 µM/min/mg and the Km [1] was 0.110 ± 0.008 µM. For the same molecule, the Vmax [1] was 0.24 µM/min/mg, the Km [4] was 0.286 ± 0.015 µM and the Vmax [4] was 0.214 µM/min/mg.

B3: CYP75B3-HN (Oryza sativa Japonica Group; R27H) (protein)
chain: B2 chain with R27H
notes: full length, 526 residues, natural allele with His27, C-terminal V5 and 6xHis tags, yeast WAT11 microsomes with Arabidopsis reductase ATR1
With B3 the Km [3] was 1.034 ± 0.107 µM, the Vmax [3] was 0.281 µM/min/mg and the Km [4] was 0.108 ± 0.009 µM. It also gave a Vmax [4] of 0.193 µM/min/mg.
